Here are results for three molecules from publication PMC4405695, “The Rab6-regulated KIF1C kinesin motor domain contributes to Golgi organization” (eLife, 2015).

Test [1] has as its target T1, His-Rab6A Q72L (UniProt P20340 1-208, Q72L).
T1 construct: Rab6A GTPase, GTP-hydrolysis deficient mutant; also called active His-Rab6A; source: purified as described (Aivazian et al., 2006)
Kind of test: pull-down; concentration dependence: GTPγS-loaded His-Rab6A Q72L (0.58 μM) with GST-KIF1C CBD immobilized on glutathione Sepharose; quantitative fluorescent antibody immunoblot; fit with GraphPad Prism. The note with it: both partners purified.

The target in test [2] is T2, Paclitaxel stabilized pre-polymerized microtubules (UniProt Q71U36 1-451; P07437 1-444, Paclitaxel-stabilized polymer, polymerized with GTP. One alpha/beta heterodimer represents the repeating unit. Source and isotypes are not given; mammalian (likely porcine) brain tubulin, a natural). The test is described as follows: co-sedimentation; KIF1C-355-His (160 nM) with His-Rab6A Q72L, His-Rab33 or BSA (3.42 µM), then increasing microtubules, 2.6 mM ADP, 0.35 mM GTPγS; BRB80. To be noted: both partners purified.

Test [3] addresses T2, Paclitaxel stabilized pre-polymerized …. Kind of test: co-sedimentation; KIF1C-355-His (80 nM) with His-Rab6A Q72L (4.86 µM) or BSA (7.6 µM), then increasing microtubules, 2.6 mM AMP-PNP, 0.35 mM GTPγS; BRB80. To be noted: both partners purified.
The target in test [4] is T3, myc-KIF1C-350 (human, UniProt O43896 1-350).
T3 construct: KIF1C, human, N-terminal motor domain, residues 1-350; also called myc-KIF1C motor domain; in vitro translated KIF1C motor domain; source: in vitro translated
T3 sequence (looked up): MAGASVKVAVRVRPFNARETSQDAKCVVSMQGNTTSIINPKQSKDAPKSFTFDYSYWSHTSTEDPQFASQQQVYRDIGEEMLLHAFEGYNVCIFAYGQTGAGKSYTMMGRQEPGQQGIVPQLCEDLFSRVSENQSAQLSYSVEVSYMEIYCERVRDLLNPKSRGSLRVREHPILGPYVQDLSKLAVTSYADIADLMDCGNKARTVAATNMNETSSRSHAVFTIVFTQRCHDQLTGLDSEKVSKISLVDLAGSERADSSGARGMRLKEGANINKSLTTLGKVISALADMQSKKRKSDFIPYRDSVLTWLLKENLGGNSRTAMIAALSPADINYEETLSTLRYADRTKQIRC
Kind of test: pull-down; concentration dependence: in vitro translated myc-KIF1C-350 with GTPγS-loaded GST-Rab6A Q72L; apparent KD; fit with KaleidaGraph. The note with it: one partner purified.

B1: GST-KIF1C CBD (domain or fragment, human, UniProt O43896 1060-1103, looked up)
chain: SYPQPPQPYPAQRPPGPRYPPYTTPPRMRRQRSAPDLKESGAAV
notes: the text calls it the C-terminal 40 amino acids; Text says 40 C-terminal residues, the legend AA 1060-1103 (44 residues); source: bacteria, purified (glutathione-Sepharose)
Turning to B1, the Kd in test [1] is 900 nM.

B2: KIF1C-355-His (domain or fragment)
chain: MAGASVKVAVRVRPFNARETSQDAKCVVSMQGNTTSIINPKQSKDAPKSFTFDYSYWSHTSTEDPQFASQQQVYRDIGEEMLLHAFEGYNVCIFAYGQTGAGKSYTMMGRQEPGQQGIVPQLCEDLFSRVSENQSAQLSYSVEVSYMEIYCERVRDLLNPKSRGSLRVREHPILGPYVQDLSKLAVTSYADIADLMDCGNKARTVAATNMNETSSRSHAVFTIVFTQRCHDQLTGLDSEKVSKISLVDLAGSERADSSGARGMRLKEGANINKSLTTLGKVISALADMQSKKRKSDFIPYRDSVLTWLLKENLGGNSRTAMIAALSPADINYEETLSTLRYADRTKQIRNTVSVN
notes: KIF1C, human, motor domain residues 1-349; KIF5C heavy chain, murine, residues 329-334; Design follows Nitta et al., 2004 for KIF1A; also called recombinant KIF1C motor domain; purified KIF1C motor domain; source: E. coli Rosetta 2, purified (Ni-NTA, HiTrap Q FF); not shown: His6, C-terminal, kept
Take B2: in test [2], the Kd amounted to 2100 nM and the “fold increase of KD with His-Rab6A (ADP state)” value was greater than 10 fold. Further, in test [3], the Kd amounted to 460 nM and the “fold increase of KD with His-Rab6A (AMP-PNP state)” value was greater than 10 fold.

B3: GST-Rab6A Q72L (natural protein, UniProt P20340 1-208, looked up)
chain: MSTGGDFGNPLRKFKLVFLGEQSVGKTSLITRFMYDSFDNTYQATIGIDFLSKTMYLEDRTVRLQLWDTAGLERFRSLIPSYIRDSTVAVVVYDITNVNSFQQTTKWIDDVRTERGSDVIIMLVGNKTDLADKRQVSIEEGERKAKELNVMFIETSAKAGYNVKQLFRRVAAALPGMESTQDRSREDMIDIKLEKPQEQPVSEGGCSC
notes: Rab6A GTPase, GTP-hydrolysis deficient mutant; GTPγS-loaded; also called active Rab6A hydrolysis-deficient mutant; source: purified as described (Aivazian et al., 2006)
Take B3: the Kd in test [4] is 230 nM.
